Where only a bound is given, the exact number is not on record here.

Broadly, the Kd is the constant that tells how readily two partners part at equilibrium. Low values mean a tighter complex, high ones a looser complex.

Among the targets are H3 Panama; H1 Caledonia; H5 Vietnam; H3 Victoria; H2 Japan.
Common to all, as to assay: BLI
In general terms: BLI is a label-free optical method that tracks binding on a fibre tip over time.

The target in assay [1] is HA H1 Solomon (A/Solomon Islands/3/2006(H1N1)). Particulars: monovalent Fab.

Regarding MEDI8852 VH E65P Fab, the Kd with H3 Panama, in the assay with H1 Caledonia, with H5 Vietnam, with H3 Victoria and with H2 Japan was < 1 pM in each case.

In assay [1], “MEDI8852 unmutated common ancestor (UCA) Fab (wild-type) VH:K58S; VH:V65P; VL:G95P” came in with a Kd of 50000 pM.
